The source of these data is patent US20260242478A1 (published 2026).

Where no end group is shown, it is not given here.

In test [1] the target is T1, 006 PSMA Fab (biotinylated (site not given)).
T1 construct: Biotinylated PSMA Fab captured on neutravidin coated plates for the clonal phage ELISA; also called Anti-PSMA Fab
As to the kind of experiment: clonal phage ELISA on plate-bound PSMA Fab, competitor: PSMA antigen pre-incubated in the wells. (In general: In an ELISA, binding on a coated surface is turned into a signal by an enzyme label.)

For test [2], the target named is T1, 006 PSMA Fab. As to the kind of experiment: clonal phage ELISA, biotinylated PSMA Fab on neutravidin plate, anti-M13 HRP detection.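 Also: crude clonal phage supernatants added to wells pretreated with blocking buffer either with or without PSMA antigen, bound phage read after washing.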
Description: (§1) Clonal phage were harvested as crude supernatants and screened via standard ELISAs. […] Prior to the addition of clonal phage. wells were incubated with blocking buffer and PSMA antigen or blocking buffer alone. Without washing or aspirating, clonal phage supernatants were then added to the wells and incubated for a short time. Wells were then washed followed by detection of bound phage using a horse radish conjugated anti-M13 antibody.
Test [3] deals with T2, 006 PSMA Fab.
T2 construct: also called Anti-PSMA Fab; anti-PSMA Fab
Briefly: phage ELISA: biotinylated PSMA Fab on neutravidin plate pre-incubated with PSMA antigen (competitor), clonal phage supernatant, anti-M13-HRP detection.
Description: as §1

In test [4] the target is T2, 006 PSMA Fab. Briefly: phage ELISA: biotinylated PSMA Fab on neutravidin plate, clonal phage supernatant, anti-M13-HRP detection; blocking buffer alone.
Description: as §1

B1: Phage-2502 (peptide)
peptide: EPKMCTPSWMCRGF
modifications: cysteine pairing not given here; also: displayed on phage as fusion to pIII, pIII and linker sequence not given here
notes: not shown: fused to pIII of the bacteriophage
As to B1, the “Phage binding ELISA signal, Anti-PSMA Fab in presence of PSMA” value with 006 PSMA Fab [1] worked out at 0.0691. In addition, the “Phage binding ELISA signal, Anti-PSMA Fab” value in the test with 006 PSMA Fab [2] came out at 1.2.

B2: Phage-2511 (peptide)
peptide: LVKLCSPEWMCVGM
modifications: cysteine pairing not given here; also: fused to phage pIII, linker and fusion site not given here
notes: as for B1
For the molecule B2, in the test with 006 PSMA Fab [1], the “Phage binding ELISA signal, Anti-PSMA Fab in presence of PSMA” value amounted to 0.0667. For the same molecule, the “Phage binding ELISA signal, Anti-PSMA Fab” value with 006 PSMA Fab [2] was found to be 1.19.

B3: Phage-2496 (peptide)
peptide: ESRLCIPAWMCESQ
notes: Clonal phage of the peptide-180 library; not shown: pIII filament protein of the bacteriophage to which the peptide is fused
With B3, the “phage binding ELISA signal in presence of PSMA antigen” value with 006 PSMA Fab [3] came to 0.0772. Also, the “phage binding ELISA signal” value with 006 PSMA Fab [4] was determined as 1.22.

B4: Phage-2509 (peptide)
peptide: TYKMCIPAWKCAVS
modifications: cysteine pairing not given here; also: fused to phage pIII, linker and fusion site not given here
notes: as for B1
Regarding B4, the “Phage binding ELISA signal, Anti-PSMA Fab in presence of PSMA” value with 006 PSMA Fab [1] worked out at 0.0792. For the same molecule, the “Phage binding ELISA signal, Anti-PSMA Fab” value with 006 PSMA Fab [2] worked out at 1.19.

B5: Phage-2492 (peptide)
peptide: IEKMCIPAWMCTDK
notes: as for B3
As to B5, in the test with 006 PSMA Fab [3], the “phage binding ELISA signal in presence of PSMA antigen” value turned out to be 0.0698. Moreover, the “phage binding ELISA signal” value with 006 PSMA Fab [4] came out at 1.22.

B6: Phage-2505 (peptide)
peptide: LGKWCIPDWMCSGL
modifications: cysteine pairing not given here; also: displayed on phage as fusion to pIII, pIII and linker sequence not given here
notes: as for B1
As for B6, the “Phage binding ELISA signal, Anti-PSMA Fab in presence of PSMA” value in the test with 006 PSMA Fab [1] worked out at 0.144. The “Phage binding ELISA signal, Anti-PSMA Fab” value with 006 PSMA Fab [2] amounted to 1.2.

B7: Phage-2497 (peptide)
peptide: WPKLCTPPWMCTVD
modifications: cysteine pairing not given here; also: displayed on phage as fusion to pIII, pIII and linker sequence not given here
notes: as for B1
As to B7, the “Phage binding ELISA signal, Anti-PSMA Fab in presence of PSMA” value with 006 PSMA Fab [1] worked out at 0.0722. Moreover, the “Phage binding ELISA signal, Anti-PSMA Fab” value in the test with 006 PSMA Fab [2] was 1.21.

B8: Phage-2499 (peptide)
peptide: GEKWCIPEWMCQDV
modifications: cysteine pairing not given here; also: displayed on phage as fusion to pIII, pIII and linker sequence not given here
notes: as for B1
B8: in the test with 006 PSMA Fab [1], the “Phage binding ELISA signal, Anti-PSMA Fab in presence of PSMA” value is 0.0722. Also, the “Phage binding ELISA signal, Anti-PSMA Fab” value with 006 PSMA Fab [2] came out at 1.21.

B9: Phage-2506 (peptide)
peptide: VQMLCIPAWMCGME
modifications: cysteine pairing not given here; also: displayed on phage as fusion to pIII, pIII and linker sequence not given here
notes: as for B1
For B9, the “Phage binding ELISA signal, Anti-PSMA Fab in presence of PSMA” value in the test with 006 PSMA Fab [1] amounted to 0.107. In addition, the “Phage binding ELISA signal, Anti-PSMA Fab” value in the test with 006 PSMA Fab [2] turned out to be 1.2.

B10: Phage-2510 (peptide)
peptide: EVKWCIPDWMCSVI
modifications: cysteine pairing not given here; also: fused to phage pIII, linker and fusion site not given here
notes: as for B1
Turning to B10, in the test with 006 PSMA Fab [1], the “Phage binding ELISA signal, Anti-PSMA Fab in presence of PSMA” value was 0.0782. The “Phage binding ELISA signal, Anti-PSMA Fab” value with 006 PSMA Fab [2] came out at 1.19.

B11: Phage-2507 (peptide)
peptide: VERLCKPLWMCQER
modifications: cysteine pairing not given here; also: fused to phage pIII, linker and fusion site not given here
notes: as for B1
Regarding B11, the “Phage binding ELISA signal, Anti-PSMA Fab in presence of PSMA” value in the test with 006 PSMA Fab [1] came to 0.0748. The “Phage binding ELISA signal, Anti-PSMA Fab” value with 006 PSMA Fab [2] stood at 1.2.

B12: Phage-2495 (peptide)
peptide: LEKWCIPLWMCQTA
notes: as for B3
With B12, in the test with 006 PSMA Fab [3], the “phage binding ELISA signal in presence of PSMA antigen” value was found to be 0.0777. Moreover, in the test with 006 PSMA Fab [4], the “phage binding ELISA signal” value was 1.22.

B13: Phage-2501 (peptide)
peptide: SDKWCIPVWMCEES
modifications: cysteine pairing not given here; also: displayed on phage as fusion to pIII, pIII and linker sequence not given here
notes: as for B1
As to B13, the “Phage binding ELISA signal, Anti-PSMA Fab in presence of PSMA” value in the test with 006 PSMA Fab [1] stood at 0.0874. Moreover, in the test with 006 PSMA Fab [2], the “Phage binding ELISA signal, Anti-PSMA Fab” value is 1.21.

B14: Phage-2508 (peptide)
peptide: HPSWCTPAWMCQGF
modifications: cysteine pairing not given here; also: fused to phage pIII, linker and fusion site not given here
notes: as for B1
As for B14, the “Phage binding ELISA signal, Anti-PSMA Fab in presence of PSMA” value in the test with 006 PSMA Fab [1] worked out at 0.0911. For the same molecule, in the test with 006 PSMA Fab [2], the “Phage binding ELISA signal, Anti-PSMA Fab” value is 1.2.

B15: Phage-2503 (peptide)
peptide: SETWCIPAWMCLDG
modifications: cysteine pairing not given here; also: displayed on phage as fusion to pIII, pIII and linker sequence not given here
notes: as for B1
With B15, the “Phage binding ELISA signal, Anti-PSMA Fab in presence of PSMA” value in the test with 006 PSMA Fab [1] turned out to be 0.0745. Also, the “Phage binding ELISA signal, Anti-PSMA Fab” value with 006 PSMA Fab [2] stood at 1.2.

B16: Phage-2504 (peptide)
peptide: IPKWCTPSWMCEWV
modifications: cysteine pairing not given here; also: displayed on phage as fusion to pIII, pIII and linker sequence not given here
notes: as for B1
Regarding B16, the “Phage binding ELISA signal, Anti-PSMA Fab in presence of PSMA” value in the test with 006 PSMA Fab [1] came to 0.0916. For the same molecule, the “Phage binding ELISA signal, Anti-PSMA Fab” value with 006 PSMA Fab [2] came to 1.2.

B17: Phage-2500 (peptide)
peptide: GTNWCKPDWMCVGL
modifications: cysteine pairing not given here; also: displayed on phage as fusion to pIII, pIII and linker sequence not given here
notes: as for B1
Take B17: the “Phage binding ELISA signal, Anti-PSMA Fab in presence of PSMA” value with 006 PSMA Fab [1] is 0.0855. Further, the “Phage binding ELISA signal, Anti-PSMA Fab” value with 006 PSMA Fab [2] was 1.21.

B18: Phage-2494 (peptide)
peptide: HFKMCVPPWMCLFD
notes: as for B3
As to B18, the “phage binding ELISA signal in presence of PSMA antigen” value with 006 PSMA Fab [3] came out at 0.101. Also, the “phage binding ELISA signal” value in the test with 006 PSMA Fab [4] stood at 1.22.

B19: Phage-2493 (peptide)
peptide: MGNWCTPPWMCTGF
notes: as for B3
On to B19, for which the “phage binding ELISA signal in presence of PSMA antigen” value in the test with 006 PSMA Fab [3] came out at 0.0704. In the test with 006 PSMA Fab [4], the “phage binding ELISA signal” value was found to be 1.22.

B20: Phage-2498 (peptide)
peptide: GEHWCIPAWMCEKM
modifications: cysteine pairing not given here; also: displayed on phage as fusion to pIII, pIII and linker sequence not given here
notes: as for B1
As to B20, the “Phage binding ELISA signal, Anti-PSMA Fab in presence of PSMA” value with 006 PSMA Fab [1] was determined as 0.0615. Also, the “Phage binding ELISA signal, Anti-PSMA Fab” value in the test with 006 PSMA Fab [2] stood at 1.21.
